According to patent US20080248458A1 (UNIVERSITY OF NORTH CAROLINA AT CHAPEL HILL, published 2008):

B3: Ring1B (enzyme, mouse, UniProt Q9CQJ4 2-336, looked up)
chain: SQAVQTNGTQPLSKTWELSLYELQRTPQEAITDGLEIVVSPRSLHSELMCPICLDMLKNTMTTKECLHRFCADCIITALRSGNKECPTCRKKLVSKRSLRPDPNFDALISKIYPSRDEYEAHQERVLARINKHNNQQALSHSIEEGLKIQAMNRLQRGKKQQIENGSGAEDNGDSSHCSNASTHSNQEAGPSNKRTKTSDDSGLELDNNNAAVAIDPVMDGASEIELVFRPHPTLMEKDDSAQTRYIKTSGNATVDHLSKYLAVRLALEELRSKGESNQMNLDTASEKQYTIYIATASGQFTVLNGSFSLELVSEKYWKVNKPMELYYAPTKEHK
notes: mature; Untagged protein: 35S-labelled in vitro translation product (pCITE, full-length cDNA) in the GST pull-down; baculovirus-expressed in Sf9 cells in the co-purifications; also called Ring2; Ring2/Ring1B

What was measured:
Bmi-1, P25916 = target: T1, Bmi-1, P25916
T1 chain: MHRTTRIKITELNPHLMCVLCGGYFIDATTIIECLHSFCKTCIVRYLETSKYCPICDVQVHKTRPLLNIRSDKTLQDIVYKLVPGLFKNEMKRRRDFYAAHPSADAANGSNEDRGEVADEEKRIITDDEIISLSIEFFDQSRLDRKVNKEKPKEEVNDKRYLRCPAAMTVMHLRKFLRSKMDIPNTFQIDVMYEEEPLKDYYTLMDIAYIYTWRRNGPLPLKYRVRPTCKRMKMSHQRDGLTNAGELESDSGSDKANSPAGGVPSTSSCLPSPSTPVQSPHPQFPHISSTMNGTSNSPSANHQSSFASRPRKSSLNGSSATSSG

Ring1A = target: T2, Ring1A (mouse, UniProt O35730 1-406); assay: GST pull-down with 35S-labelled in vitro translated protein (FIG. 5A)
T2 construct: mature; Untagged protein: 35S-labelled in vitro translation product in the GST pull-down; baculovirus-expressed in Sf9 cells in the co-purifications; also called Ring1/Ring1A
T2 sequence (looked up): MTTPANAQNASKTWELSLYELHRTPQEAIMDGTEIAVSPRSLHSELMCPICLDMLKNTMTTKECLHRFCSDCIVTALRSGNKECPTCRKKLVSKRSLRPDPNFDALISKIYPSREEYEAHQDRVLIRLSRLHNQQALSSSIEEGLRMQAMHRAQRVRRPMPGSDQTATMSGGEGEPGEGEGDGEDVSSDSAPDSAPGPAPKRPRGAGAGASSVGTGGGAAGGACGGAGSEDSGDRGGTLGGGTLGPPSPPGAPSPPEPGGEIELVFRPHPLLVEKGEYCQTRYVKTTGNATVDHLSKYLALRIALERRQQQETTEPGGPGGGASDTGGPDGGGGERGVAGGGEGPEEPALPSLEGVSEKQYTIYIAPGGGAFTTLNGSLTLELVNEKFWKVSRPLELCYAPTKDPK
Method: (§1) Full-length cDNAs for Ring1B, Ring1A, Bmi-1, Pc3 and Ph2 were inserted into pCITE vector for in vitro translation using the rabbit reticulocyte lysate kit according to the manufacturer's instructions (PROMEGA, Madison, Wis.). Full-length cDNAs for Ring1B, Ring1A, Bmi-1, Pc3 and Ph2 were also cloned into pGEX-KG vector for the production of GST-fusion proteins. About 3 μg of GST or GST fusion proteins were bound to 10 μL of glutathione-immobilized agarose beads (Sigma) and incubated with in vitro-translated products in 500 μL buffer A (50 mM Tris-HCl [pH 7.9], 0.5 mM EDTA, 1 mM dithiothreitol, 0.2 mM phenylmethylsulfonyl fluoride, 10% glycerol) containing 150 mM KCl and 0.05% NP-40. After incubation at 4° C. for 2 hours, the beads were washed three times with buffer A containing 300 mM KCl and 0.05% NP-40 and then washed once in buffer A containing 50 mM KCl before being subjected to SDS-PAGE and autoradiogram.
(§2) To address the effect of other subunits on Ring1B enzymatic activity, an attempt was made to reconstitute Ring1B-containing subcomplexes. Toward this end, the precise spatial relationship among components of the complex were first defined using GST full-down assays. Individual components were expressed as GST fusion proteins and equal amounts of the fusion proteins, as well as GST alone (FIG. 5A, last panel), were immobilized onto beads and incubated with ³⁵S-labeled proteins. […]

GST-Ring1A = target: T3, GST-Ring1A (mouse, UniProt O35730 1-406); assay: as above
T3 construct: mature; Full-length cDNA cloned into pGEX-KG; also called GST fusion of Ring1A; not shown: glutathione S-transferase (GST) encoded by the pGEX-KG vector
T3 sequence (looked up): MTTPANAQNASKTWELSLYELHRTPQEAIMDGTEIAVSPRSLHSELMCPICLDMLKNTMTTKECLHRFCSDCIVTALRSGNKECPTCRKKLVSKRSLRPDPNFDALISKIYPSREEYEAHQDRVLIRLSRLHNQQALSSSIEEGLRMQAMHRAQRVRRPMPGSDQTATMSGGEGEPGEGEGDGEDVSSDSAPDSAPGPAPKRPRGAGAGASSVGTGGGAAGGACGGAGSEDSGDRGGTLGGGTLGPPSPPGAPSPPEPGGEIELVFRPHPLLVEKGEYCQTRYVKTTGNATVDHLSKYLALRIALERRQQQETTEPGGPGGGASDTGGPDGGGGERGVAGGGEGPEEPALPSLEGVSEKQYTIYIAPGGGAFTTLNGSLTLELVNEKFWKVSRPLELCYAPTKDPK
Method: as §1, §2

Ring1B = target: B3; assay: purification of two-component complexes from infected insect cells (FIG. 13D)
FLAG®-Ring1B = target: T4, FLAG®-Ring1B (mouse, UniProt Q9CQJ4 1-336); assay: co-expression in Sf9 cells, anti-FLAG purification, silver stain (FIG. 7A)
T4 construct: also called F-Ring1B
T4 sequence: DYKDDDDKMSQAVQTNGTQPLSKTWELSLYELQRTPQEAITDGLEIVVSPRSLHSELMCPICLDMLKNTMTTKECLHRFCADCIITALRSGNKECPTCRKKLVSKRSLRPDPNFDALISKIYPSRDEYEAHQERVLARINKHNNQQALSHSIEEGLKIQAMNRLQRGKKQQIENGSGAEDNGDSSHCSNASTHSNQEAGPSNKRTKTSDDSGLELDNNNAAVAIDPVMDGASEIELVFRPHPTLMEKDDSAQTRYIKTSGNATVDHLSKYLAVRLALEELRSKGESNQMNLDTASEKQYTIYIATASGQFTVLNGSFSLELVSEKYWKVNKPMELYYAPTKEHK
Method: To purify the recombinant PRC1 complex and sub-complexes, different baculoviruses were used to co-infect SF9 cells. After two days of infection, cells were collected and resuspended in F lysis buffer [20 mM Tris (pH 7.9), 500 mM NaCl, 4 mM MgCl₂, 0.4 mM EDTA, 2 mM DTT, 20% glycerol, 0.1% NP40] with proteinase inhibitors. Then cells were homogenized with pestle A three times (10 strokes each) in a period of 30 minutes. The supernatant was recovered by centrifuging at 11,000 rpm for 10 minutes. The supernatant was adjusted to 300 mM NaCl by adding Dilution buffer [20 mM Tris (pH 7.9), 10% glycerol], then incubated with the M2 α-FLAG® agarose (Sigma, St. Louis, Mo.) equilibrated with F lysis buffer for 4 hours at 4° C. After washing with F washing buffer [20 mM Tris (pH 7.9), 150 mM NaCl, 2 mM MgCl₂, 0.2 mM EDTA, 1 mM DTT, 15% glycerol, 0.01% NP40] until no protein came out, bound proteins were eluted with 0.2 mg/ml FLAG® peptide ([…]; SEQ ID NO:5) in F washing buffer for 20 minutes each time at room temperature. The eluted complexes were further purified through a gel-filtration SEPHADEX 200 or SUPEROSE 6 column. […]

B1: FLAG®-Ring1B (protein)
chain: DYKDDDDKMSQAVQTNGTQPLSKTWELSLYELQRTPQEAITDGLEIVVSPRSLHSELMCPICLDMLKNTMTTKECLHRFCADCIITALRSGNKECPTCRKKLVSKRSLRPDPNFDALISKIYPSRDEYEAHQERVLARINKHNNQQALSHSIEEGLKIQAMNRLQRGKKQQIENGSGAEDNGDSSHCSNASTHSNQEAGPSNKRTKTSDDSGLELDNNNAAVAIDPVMDGASEIELVFRPHPTLMEKDDSAQTRYIKTSGNATVDHLSKYLAVRLALEELRSKGESNQMNLDTASEKQYTIYIATASGQFTVLNGSFSLELVSEKYWKVNKPMELYYAPTKEHK
In the case of B1, the “E3 ligase activity (ubiquitylation of nucleosomal substrates)” value (Bmi-1, P25916) is reported as “stimulated its E3 ligase activity”.

B2: GST-Ring1B (other, mouse, UniProt Q9CQJ4 2-336, looked up)
chain: SQAVQTNGTQPLSKTWELSLYELQRTPQEAITDGLEIVVSPRSLHSELMCPICLDMLKNTMTTKECLHRFCADCIITALRSGNKECPTCRKKLVSKRSLRPDPNFDALISKIYPSRDEYEAHQERVLARINKHNNQQALSHSIEEGLKIQAMNRLQRGKKQQIENGSGAEDNGDSSHCSNASTHSNQEAGPSNKRTKTSDDSGLELDNNNAAVAIDPVMDGASEIELVFRPHPTLMEKDDSAQTRYIKTSGNATVDHLSKYLAVRLALEELRSKGESNQMNLDTASEKQYTIYIATASGQFTVLNGSFSLELVSEKYWKVNKPMELYYAPTKEHK
notes: mature; Full-length cDNA cloned into pGEX-KG; also called GST fusion of Ring1B; not shown: glutathione S-transferase (GST) encoded by the pGEX-KG vector
B2: no binding (Ring1A).

B3: no binding (GST-Ring1A).

B4: Bmi-1 (other, mouse, UniProt P25916 1-324, looked up)
chain: MHRTTRIKITELNPHLMCVLCGGYFIDATTIIECLHSFCKTCIVRYLETSKYCPICDVQVHKTRPLLNIRSDKTLQDIVYKLVPGLFKNEMKRRRDFYAAHPSADAANGSNEDRGEVADEEKRIITDDEIISLSIEFFDQSRLDRKVNKEKPKEEVNDKRYLRCPAAMTVMHLRKFLRSKMDIPNTFQIDVMYEEEPLKDYYTLMDIAYIYTWRRNGPLPLKYRVRPTCKRMKMSHQRDGLTNAGELESDSGSDKANSPAGGVPSTSSCLPSPSTPVQSPHPQFPHISSTMNGTSNSPSANHQSSFASRPRKSSLNGSSATSSG
notes: mature; Untagged protein: 35S-labelled in vitro translation product in the GST pull-down; baculovirus-expressed in Sf9 cells in the two-component complex with FLAG-Ring1B
B4: binds (Ring1B); binds (FLAG®-Ring1B).
